How the values were obtained:
[1] = target: ATS‐C fragment of PfEMP1 variant PFL0030c (VAR2CSA) (Plasmodium falciparum); test: fluorescence polarisation; 500 nM 5-FAM-labelled ATS-C variants titrated with unlabelled PFE1605w PHIST domain; 20°C; 50 mM NaCl, 20 mM Na2HPO4 pH 6.5; single-site model
[2] = target: PFE1605w‐C (Plasmodium falciparum); test: fluorescence polarisation; 0.5 μM 5-FAM-labelled PFE1605w-C titrated with unlabelled band 3 cytosolic domain (or BSA as negative control); 20°C; 50 mM NaCl, 20 mM Na2HPO4 pH 7.0; single-site model

Substance	Kd [1] [µM]	Kd [2] [µM]
PFE1605w PHIST domain (domain or fragment)	90	–
band 3 cytosolic domain (from UniProt P02730 1-379) (domain or fragment)	–	1.5

— article PMC5103180
